{"source": "the supplement of paper PMC10126150", "note": "± gives the standard deviation of the averaged measurements.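 Note: ATP exposure 15 min at 22 °C before imaging.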"}
{"system": "ATP", "test": "switch fluorescence ratio, 500 uM ATP over buffer (Cy3 cluster intensity, sum of 5 cycles each) (fold (ratio)); higher = stronger signal-on switching upon ATP binding; sequences stand for … in TCGTCGGCAGCGTCAGATGTGTATAAGAGACAGTTTTTTTTTTTTTTTTTTTTTTTTT…TC", "conditions": "aptamer strand: ATP DNA aptamer (quencher-CACCTGGGGGAGTATTGCGGAGGAAGG + anchor), 100 nM annealed; ATP concentration: 500 uM", "procedure,_shortened": "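Cy3-labelled switching-strand clusters on a modified Illumina MiSeq flow-cell were annealed to 100 nM quencher-labelled ATP aptamer and imaged first in selection buffer, then after 15 min with 500 uM ATP at 22 °C. NaOH stripping and re-annealing separated each of five buffer/ATP cycles, and clusters outside 100-1000 RFU were excluded. The fluorescence ratio sums target-cycle Cy3 intensity over buffer-cycle Cy3 intensity per cluster and averages it per switch-domain sequence.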"}
{"sequence": "TGGGGTACGG", "switch fluorescence ratio": "1.004 ± 0.0064"}
{"sequence": "TGGGGTACGT", "switch fluorescence ratio": "1.02 ± 0.013"}
{"sequence": "TGGGGTACTT", "switch fluorescence ratio": "0.973 ± 0.027"}
{"sequence": "TGGGGTAGGT", "switch fluorescence ratio": "0.999 ± 0.011"}
{"sequence": "TGGGGTCAGG", "switch fluorescence ratio": "1.016 ± 0.0086"}
{"sequence": "TGGGGTCTCT", "switch fluorescence ratio": "0.985 ± 0.042"}
{"sequence": "TGGGGTGATC", "switch fluorescence ratio": "1 ± 0.029"}
{"sequence": "TGGGGTGCGA", "switch fluorescence ratio": "1.01 ± 0.042"}
{"sequence": "TGGGGTGGCA", "switch fluorescence ratio": "1.01 ± 0.045"}
{"sequence": "TGGGGTGGCT", "switch fluorescence ratio": "0.985 ± 0.015"}
{"sequence": "TGGGGTTCAC", "switch fluorescence ratio": "0.998 ± 0.018"}
{"sequence": "TGGGGTTGAA", "switch fluorescence ratio": "0.958 ± 0.022"}
{"sequence": "TGGGGTTTCG", "switch fluorescence ratio": "0.973 ± 0.038"}
{"sequence": "TGGGGTTTTG", "switch fluorescence ratio": "0.979 ± 0.015"}
{"sequence": "TGGGTAAAGT", "switch fluorescence ratio": "0.971 ± 0.019"}
{"sequence": "TGGGTAACTT", "switch fluorescence ratio": "1.1 ± 0.18"}
{"sequence": "TGGGTAAGTA", "switch fluorescence ratio": "0.993 ± 0.012"}
{"sequence": "TGGGTAAGTG", "switch fluorescence ratio": "0.975 ± 0.022"}
{"sequence": "TGGGTACGCT", "switch fluorescence ratio": "1.01 ± 0.022"}
{"sequence": "TGGGTAGAAC", "switch fluorescence ratio": "1.12 ± 0.13"}
{"sequence": "TGGGTATATA", "switch fluorescence ratio": "1.03 ± 0.016"}
{"sequence": "TGGGTATGAA", "switch fluorescence ratio": "0.977 ± 0.019"}
{"sequence": "TGGGTATTCC", "switch fluorescence ratio": "1.021 ± 0.0085"}
{"sequence": "TGGGTCAGGT", "switch fluorescence ratio": "0.9994 ± 0.0084"}
{"sequence": "TGGGTCGTGC", "switch fluorescence ratio": "0.99 ± 0.011"}
{"sequence": "TGGGTCTACT", "switch fluorescence ratio": "0.9761 ± 0.0084"}
{"sequence": "TGGGTCTAGT", "switch fluorescence ratio": "0.9975 ± 0.0042"}
{"sequence": "TGGGTGACGA", "switch fluorescence ratio": "1.01 ± 0.024"}
{"sequence": "TGGGTGCAAA", "switch fluorescence ratio": "1.01 ± 0.033"}
{"sequence": "TGGGTGTAT", "switch fluorescence ratio": "1.01 ± 0.023"}
{"sequence": "TGGGTGTCAC", "switch fluorescence ratio": "0.9868 ± 0.005"}
{"sequence": "TGGGTGTGTT", "switch fluorescence ratio": "0.995 ± 0.028"}
{"sequence": "TGGGTTAGCG", "switch fluorescence ratio": "0.995 ± 0.041"}
{"sequence": "TGGGTTAGGT", "switch fluorescence ratio": "0.977 ± 0.022"}
{"sequence": "TGGGTTAGTA", "switch fluorescence ratio": "0.984 ± 0.015"}
{"sequence": "TGGGTTATAT", "switch fluorescence ratio": "0.979 ± 0.011"}
{"sequence": "TGGGTTATGC", "switch fluorescence ratio": "0.984 ± 0.018"}
{"sequence": "TGGGTTATGT", "switch fluorescence ratio": "0.992 ± 0.019"}
{"sequence": "TGGGTTCGGT", "switch fluorescence ratio": "0.995 ± 0.0032"}
{"sequence": "TGGGTTCTGA", "switch fluorescence ratio": "0.98 ± 0.011"}
{"sequence": "TGGGTTGGAT", "switch fluorescence ratio": "0.99 ± 0.013"}
{"sequence": "TGGGTTTATT", "switch fluorescence ratio": "0.984 ± 0.014"}
{"sequence": "TGGGTTTCAG", "switch fluorescence ratio": "0.996 ± 0.05"}
{"sequence": "TGGGTTTTCA", "switch fluorescence ratio": "0.984 ± 0.016"}
{"sequence": "TGGGTTTTCT", "switch fluorescence ratio": "1.08 ± 0.28"}
{"sequence": "TGGGTTTTTA", "switch fluorescence ratio": "0.9442 ± 0.0014"}
{"sequence": "TGGGTTTTTG", "switch fluorescence ratio": "1.01 ± 0.039"}
{"sequence": "TGGTAAATCT", "switch fluorescence ratio": "1 ± 0.036"}
{"sequence": "TGGTAATATA", "switch fluorescence ratio": "1.02 ± 0.024"}
{"sequence": "TGGTAATATC", "switch fluorescence ratio": "1.012 ± 0.0024"}
{"sequence": "TGGTAATCAA", "switch fluorescence ratio": "1.01 ± 0.039"}
{"sequence": "TGGTACGGGG", "switch fluorescence ratio": "1.02 ± 0.033"}
{"sequence": "TGGTACGGTC", "switch fluorescence ratio": "0.927 ± 0.041"}
{"sequence": "TGGTAGAGAT", "switch fluorescence ratio": "1.01 ± 0.051"}
{"sequence": "TGGTAGGGTG", "switch fluorescence ratio": "1.01 ± 0.034"}
{"sequence": "TGGTAGTAGG", "switch fluorescence ratio": "0.995 ± 0.017"}
{"sequence": "TGGTAGTCGT", "switch fluorescence ratio": "0.994 ± 0.043"}
{"sequence": "TGGTAGTGAC", "switch fluorescence ratio": "1.03 ± 0.064"}
{"sequence": "TGGTAGTTTT", "switch fluorescence ratio": "0.9899 ± 0.0078"}
{"sequence": "TGGTATATT", "switch fluorescence ratio": "0.986 ± 0.027"}
{"sequence": "TGGTATTGTG", "switch fluorescence ratio": "0.947 ± 0.021"}
{"sequence": "TGGTATTTGG", "switch fluorescence ratio": "0.949 ± 0.046"}
{"sequence": "TGGTCAACTA", "switch fluorescence ratio": "1 ± 0.02"}
{"sequence": "TGGTCAGCTA", "switch fluorescence ratio": "1.02 ± 0.025"}
{"sequence": "TGGTCCATGG", "switch fluorescence ratio": "1.008 ± 0.007"}
{"sequence": "TGGTCCATTT", "switch fluorescence ratio": "1.014 ± 0.0091"}
{"sequence": "TGGTCCCGGA", "switch fluorescence ratio": "1 ± 0.017"}
{"sequence": "TGGTCGGGGT", "switch fluorescence ratio": "1.01 ± 0.013"}
{"sequence": "TGGTCGTCTT", "switch fluorescence ratio": "1.05 ± 0.035"}
{"sequence": "TGGTCTATTT", "switch fluorescence ratio": "0.965 ± 0.019"}
{"sequence": "TGGTCTCTAA", "switch fluorescence ratio": "0.98 ± 0.01"}
{"sequence": "TGGTCTTCCA", "switch fluorescence ratio": "1.04 ± 0.013"}
{"sequence": "TGGTGAATTT", "switch fluorescence ratio": "1.016 ± 0.0067"}
{"sequence": "TGGTGAGGCT", "switch fluorescence ratio": "0.9694 ± 0.0037"}
{"sequence": "TGGTGGCGGT", "switch fluorescence ratio": "1.01 ± 0.075"}
{"sequence": "TGGTGGGAGG", "switch fluorescence ratio": "1 ± 0.015"}
{"sequence": "TGGTGGGGAG", "switch fluorescence ratio": "1.01 ± 0.045"}
{"sequence": "TGGTGGGGGG", "switch fluorescence ratio": "0.997 ± 0.037"}
{"sequence": "TGGTGGGGTG", "switch fluorescence ratio": "0.986 ± 0.012"}
{"sequence": "TGGTGGTGGC", "switch fluorescence ratio": "0.981 ± 0.0072"}
{"sequence": "TGGTGTCTAT", "switch fluorescence ratio": "1.007 ± 0.0087"}
{"sequence": "TGGTGTGACA", "switch fluorescence ratio": "0.995 ± 0.065"}
{"sequence": "TGGTGTTGGG", "switch fluorescence ratio": "0.983 ± 0.015"}
{"sequence": "TGGTGTTTTG", "switch fluorescence ratio": "0.999 ± 0.031"}
{"sequence": "TGGTTAAATC", "switch fluorescence ratio": "1.03 ± 0.019"}
